Results reported in patent publication US9056102B2, “VEGF-activated trail ligands” (The Regents of the University of California, priority 2005, dated 2015).

Experiments:
[1] = system: U87MG human glioblastoma cells; assay: Potentiation of R2FasL by chemotherapeutic agents, resazurin cell viability assay; assay type: cell-based; conditions: 72 hours drug (Bis VIII 1 μM, camptothecin 20 nM, etoposide 5 μM), then R2FasL 10 μL/well for 40 hours
[2] = system: U87MG human glioblastoma cells; assay: Potentiation of R2FasL by chemotherapeutic agents, LDH release assay; conditions: 72 hours drug (Bis VIII 1 μM, camptothecin 20 nM, etoposide 5 μM), then R2FasL 10 μL/well for 40 hours
Experimental: To determine if the activity of R2FasL can be potentiated by chemotherapeutic agents, the following experiments were performed. U87MG human glioblastoma cells were plated in 96-well plates in 100 μL of complete medium with 10% fetal calf serum at 25,000 cells/well. Forty-eight hours later cells were treated with either bisindolylmaleimide VIII (Bis VIII, final concentration 1 μM), camptothecin (final concentration 20 nM), etoposide (final concentration 5 μM), or DMSO vehicle (1 μL/well). Bis VIII, camptothecin, and etoposide (all from Biomol) were dissolved in DMSO and added at 1 μL/well. After 72 hours of drug exposure, cells were treated with FLAG antibody affinity-purified R2FasL solution (10 μL/well), and incubated for an additional 40 hours. Cell viability and cytotoxicity were assayed using the resazurin assay and the LDG release assay, respectively, as described above.

[3] = system: Human umbilical vein endothelial cells (HUVEC); assay: Macrovascular endothelial cell viability, resazurin assay; assay type: cell-based; conditions: serum-starved, 10 μL/well conditioned medium, with 2 nM rhVEGF-165, 22 hours
Experimental: R2FasL may be differentially active in tumor endothelial cells (microvascular) and less toxic to normal macrovascular endotherlial cells, such as arteries and veins. […] Twenty-four hours later serum starvation was begun (to sensitize cells to death signals) by withdrawing serum. After fifteen hours of serum starvation cells were treated Cos7 cell conditioned medium containing R2FasL (10 μL/well) in the absence or presence of rh VEGF-165 (final concentration 2 nM). After 22 hours of treatment with R2FasL±rhVEGF cell viability was assayed using the resazurin assay as described herein. No effect of R2FasL+VEGF was seen on these macrovascular endothelial cells (FIG. 20A).

[4] = system: Bovine adrenal cortical endothelial cells; assay: Microvascular endothelial cell cytotoxicity, LDH release assay; assay type: cell-based; conditions: 2 μL/well conditioned medium, with 2 nM rhVEGF-165, 24 hours
Experimental: Twenty-two hours later conditioned medium from Cos7 cells transfected with either pFLAG/R2FasL or empty pFLAG vector was added (2 μL/well), in the absence or presence of rhVEGF-165 (final concentration 2 nM). Twenty-four hours later cytotoxicity was assayed using the LDH release assay as described above.

[5] = system: Jurkat E6.1 human T cells; assay: Jurkat cell viability, resazurin (AlamarBlue) assay; assay type: cell-based; conditions: 1 μL/well conditioned medium, rhVEGF-165 or rmVEGF-165 0.001-10 nM, 18 hours
Experimental: Conditioned medium (0.001, 0.01, 0.1, 1, or 10 μL) from Cos7 cells transfected with pFLAG/R1[D2]FasL vector was added in the absence or presence of rhVEGF-165 (final concentration 2 nM). Twenty-two hours later cell viability was assayed using the resazurin assay (AlamarBlue reagent from BioSource). Conversion of AlamarBlue substrate to product by viable cells was determined by adding 20 μL of AlamarBlue to each well and measuring absorbance at 540 nm and […]. Calculation of % conversion of substrate to product was performed according to the manufacturer's protocol.
To investigate which growth factors activate R1[D2]FasL the following experiment was performed. […] All growth factors were used at a final concentration of 10 nM, and were from Peprotech or R&D Systems. Nineteen hours later cell viability was assayed using the resazurin assay as described above.
In a similar experiment, the concentration of the growth factors tested was varied. […] Conditioned medium from Cos7 cells transfected with either pFLAG/R2FasL vector or empty pFLAG vector was added (1 μL/well), in the absence or presence of rhVEGF-165 or rmVEGF-165 at the final concentrations of 0.001, 0.01, 0.1, 1, and 10 nM. Eighteen hours later cell viability was assayed using the resazurin assay as described herein.
To determine the ED50 for hVEGF-165 on R1[D2]FasL the following experiment was performed. […] Conditioned medium from Cos7 cells transfected with pFLAG/R1[D2]FasL vector was added (2 μL/well), in the absence or presence of rhVEGF-165 at 0, 0.01, 0.1, 1, 10, 100, 1,000, or 10,000 nM. Nineteen hours later cell viability was assayed using the resazurin assay as described above.
In a similar experiment the ED50 for hVEGF-165 on R2FasL was determined. […] Conditioned medium from Cos7 cells transfected with pFLAG/R2FasL vector was added in the volumes indicated, in the absence or presence of rhVEGF-165 at the final concentrations of […], 0.2 and 2 nM. Eighteen hours later cell viability was assayed using the resazurin assay. The ED50 for rhVEGF-165 was between 20 pM and 200 pM (FIG. 21B).

[6] = system: U87MG human glioblastoma cells; assay: LDH release cytotoxicity assay in glioblastoma cells; assay type: cell-based; conditions: FLAG-purified R2FasL solution 0-10 μL/well, 24 hours
Experimental: R2FasL solution (0, 0.01, 0.1, 1, or 10 μL), purified by FLAG epitope tag affinity chromatography, was then added to each well (FIG. 17A). In addition, each well received 300 ng of neutralizing anti-VEGF antibody, neutralizing anti-FasL antibody, or control goat Ig (all from R&S Systems). Twenty-four hours later the cells were assayed for cytotoxicity using the LDH release assay (Roche), in which 10 μL of cell supernatant is mixed with 100 μL LDH reaction mixture in a total reaction volume of 200 μL. Cytotoxicity was assayed spectrophotometrically by measuring absorbance at 492 nm.

[7] = system: U373 human glioblastoma cells; assay: LDH release cytotoxicity assay in Fas-resistant glioblastoma cells; assay type: cell-based; conditions: Cos7 conditioned medium with R2FasL, 36 hours; cells resistant to Fas receptor-mediated killing
Experimental: To investigate the specificity of the R2FasL activity on U87MG glioblastoma cells, the cytotoxic effect of R2FasL on the U373 glioblastoma cell line, was analyzed. […] Conditioned medium from Cos7 cells transfected with pFLAG/R2FasL vector was added in the indicated volumes. After 36 more hours cytotoxicity was assayed using the LDH release assay as described herein (FIG. 17D).

[8] = system: DU145 human prostate cancer cells; assay: LDH release cytotoxicity assay in prostate cancer cells; assay type: cell-based; conditions: Cos7 conditioned medium with R2FasL, 34 hours
Experimental: DU145 human prostate cancer cells were plated in 24-well plates in 500 μL of complete medium with 10% fetal calf serum and allowed to grow for 54 hours without change of medium. Conditioned medium from Cos7 cells transfected with either pFLAG/R2FasL or empty pFLAG vector was added in the indicated volumes. After 34 more hours cytotoxicity was assayed using the LDH release assay as described above.

[9] = system: U87MG human glioblastoma cells; assay: Cell death in glioblastoma cells, Trypan blue cell counting; assay type: cell-based; conditions: Cos7 conditioned medium with R2FasL, 36 hours
Experimental: To investigate if R2FasL induces apoptosis in human glioblastoma the following experiment was performed. […] Twenty-four hours later conditioned medium from Cos7 cells transfected with either pFLAG/R2FasL or empty pFLAG vector was added (FIG. 17B). The concentration of R2FasL was determined separately by quantitative immunoblotting using commercially produced rhsFasL as standard (R&S Systems). After 36 more hours, cells were trypsinized, stained with Trypan blue, and counted on a hemocytometer. Data in FIG. 17B are shown as mean±SEM.

Molecule: CC[C@@]1(O)C(=O)OCc2c1cc1n(c2=O)Cc2cc3ccccc3nc2-1 [camptothecin]
- potentiation of R2FasL apoptotic activity (cell viability) [1]: Potentiation of R2FasL apoptotic activity
- potentiation of R2FasL cytotoxic activity (LDH release) [2]: Potentiation of R2FasL cytotoxic activity

B1: R2FasL: FLAG epitope-tagged VEGFR2/FasL fusion protein expressed from pFLAG/R2FasL; apparently the FLAG-tagged form of FlkFasL (protein)
chain: AASVGLPGDFLHPPKLSTQKDILTILANTTLQITCRGQRDLDWLWPNAQRDSEERVLVTECGGGDSIFCKTLTIPRVVGNDTGAYKCSYRDVDIASTVYVYVRDYRSPFIASVSDQHGIVYITENKNKTVVIPCRGSISNLNVSLCARYPEKRFVPDGNRISWDSEIGFTLPSYMISYAGMVFCEAKINDETYQSIMYIVVVVGYRIYDVILSPPHEIELSAGEKLVLNCTARTELNVGLDFTWHSPPSKSHHKKIVNRDVKPFPGTVAKMFLSTLTIESVTKSDQGEYTCVASSGRMIKRNRTFVRVHTKPFIAFGSARGTSEKKELRKVAHLTGKSNSRSMPLEWEDTYGIVLLSGVKYKKGGLVINETGLYFVYSKVYFRGQSCNNLPLSHKVYMRNSKYPQDLVMMEGKMMSYCTTGQMWARSSYLGAVFNLTSADHLYVNVSELSLVNFEESQTFFGLYKL
modifications: left off: small tags and cut ends
notes: apparently the FLAG-tagged form of FlkFasL
- effect of R2FasL+VEGF on cell viability [3]: No effect
- cytotoxicity (LDH release) of R2FasL and VEGF [4]: induce cytotoxicity
- activation by human and mouse VEGF-165 (cell viability) [5]: human and mouse VEGF-165 similarly activate R2FasL
- cytotoxicity (LDH release) [6]: induces cytotoxicity
- cytotoxicity (LDH release) [7]: does not induce cytotoxicity
- cytotoxicity (LDH release) [8]: induces cytotoxicity
- cell death (cell count) [9]: induces cell death
